Where “and” joins values, the source holds several entries; their conditions need not be identical. Equal entries are not always repeated. Where no end group is shown, it is not given here. [ ]: non-standard residue; d: D form. pGlu = O=C1CC[C@@H](C(=O)O)N1
How the values were obtained:
IGF-1R on SW480 cells [1] = target: T1, IGF-1R on SW480 cells (UniProt P08069 31-1367, limits assumed); assay: cell-based or functional assay
[2] = target: T2, IGF-1R on MCF-7 cells (MCF-7S8, MCF7) (human, UniProt P08069 31-1367); assay: cell-based or functional assay
T2 sequence (P08069 31-1367): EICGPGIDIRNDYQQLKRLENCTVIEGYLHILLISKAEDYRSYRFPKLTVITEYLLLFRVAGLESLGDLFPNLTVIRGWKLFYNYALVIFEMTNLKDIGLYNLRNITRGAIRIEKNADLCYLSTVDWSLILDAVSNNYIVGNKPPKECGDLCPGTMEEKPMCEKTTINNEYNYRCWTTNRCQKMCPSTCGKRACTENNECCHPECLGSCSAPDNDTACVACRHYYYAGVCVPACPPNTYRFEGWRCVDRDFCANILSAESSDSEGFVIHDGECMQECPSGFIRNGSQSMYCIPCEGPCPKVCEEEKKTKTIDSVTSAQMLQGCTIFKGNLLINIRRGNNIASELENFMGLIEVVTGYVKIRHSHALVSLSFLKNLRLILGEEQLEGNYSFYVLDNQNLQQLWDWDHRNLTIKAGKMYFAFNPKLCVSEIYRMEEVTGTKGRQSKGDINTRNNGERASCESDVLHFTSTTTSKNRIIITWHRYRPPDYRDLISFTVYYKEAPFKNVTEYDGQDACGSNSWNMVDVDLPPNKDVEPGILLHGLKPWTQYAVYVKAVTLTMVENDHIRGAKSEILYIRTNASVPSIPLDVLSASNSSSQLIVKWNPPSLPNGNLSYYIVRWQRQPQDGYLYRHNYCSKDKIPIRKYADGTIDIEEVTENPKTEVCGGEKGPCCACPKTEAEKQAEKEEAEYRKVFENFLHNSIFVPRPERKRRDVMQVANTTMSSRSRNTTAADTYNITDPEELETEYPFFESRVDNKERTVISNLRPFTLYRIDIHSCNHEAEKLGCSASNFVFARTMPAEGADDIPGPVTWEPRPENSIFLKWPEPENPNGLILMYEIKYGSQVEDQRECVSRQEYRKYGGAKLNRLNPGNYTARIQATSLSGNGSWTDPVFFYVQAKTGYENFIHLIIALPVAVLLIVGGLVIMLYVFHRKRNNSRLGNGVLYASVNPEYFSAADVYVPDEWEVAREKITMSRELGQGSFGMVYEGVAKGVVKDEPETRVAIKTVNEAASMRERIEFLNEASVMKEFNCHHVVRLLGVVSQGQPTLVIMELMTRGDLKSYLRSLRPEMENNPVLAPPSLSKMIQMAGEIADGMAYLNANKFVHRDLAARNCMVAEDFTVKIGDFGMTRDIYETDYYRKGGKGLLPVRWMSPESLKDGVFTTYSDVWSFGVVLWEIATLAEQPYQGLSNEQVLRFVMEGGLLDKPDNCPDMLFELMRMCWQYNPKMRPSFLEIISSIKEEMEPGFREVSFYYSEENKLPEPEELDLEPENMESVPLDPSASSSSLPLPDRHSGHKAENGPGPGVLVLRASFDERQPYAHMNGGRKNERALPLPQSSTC

[3] = target: T3, Human IGF-1R (HIGF-1R), purified from BHK cells stably transfected with IGF-1R cDNA (human, UniProt P08069 31-1367); assay: competition with 125I-IGF-1 on purified HIGF-1R (PEG or SPA assay; the sentence does not say which)
T3 construct: mature; Detergent-solubilised whole receptor, not on cells; form 'mature' is my reading of 'purified from ... cells stably transfected with IGF-1R cDNA'; also called human insulin-like growth factor-1 receptor; purified HIGF-1R
T3 sequence (P08069 31-1367 limits assumed): as the sequence (P08069 31-1367) above

[4] = target: IGF-1R on SW480, MCF-7 and MiaPaCa cells (human, UniProt P08069 31-1367); assay: cell-based or functional assay
IGF-1R on SW480, MCF-7 and MiaPaCa cells, sequence (P08069 31-1367): as above

[5] = target: Human IGF-1R (HIGF-1R), purified from BHK cells stably transfected with IGF-1R cDNA (human, UniProt P08069 31-1367); assay: cell-based or functional assay
Target sequence in this assay (P08069 31-1367 limits assumed): as the sequence (P08069 31-1367) above

[6] = target: T3, Human IGF-1R (HIGF-1R), purified from …; assay: cell-based or functional assay; remark: listed apart in the source
IGF-1R on L6 cells [7] = assay: cell-based or functional assay
Target sequence in this assay (P24062 31-737, chain 1 of 2): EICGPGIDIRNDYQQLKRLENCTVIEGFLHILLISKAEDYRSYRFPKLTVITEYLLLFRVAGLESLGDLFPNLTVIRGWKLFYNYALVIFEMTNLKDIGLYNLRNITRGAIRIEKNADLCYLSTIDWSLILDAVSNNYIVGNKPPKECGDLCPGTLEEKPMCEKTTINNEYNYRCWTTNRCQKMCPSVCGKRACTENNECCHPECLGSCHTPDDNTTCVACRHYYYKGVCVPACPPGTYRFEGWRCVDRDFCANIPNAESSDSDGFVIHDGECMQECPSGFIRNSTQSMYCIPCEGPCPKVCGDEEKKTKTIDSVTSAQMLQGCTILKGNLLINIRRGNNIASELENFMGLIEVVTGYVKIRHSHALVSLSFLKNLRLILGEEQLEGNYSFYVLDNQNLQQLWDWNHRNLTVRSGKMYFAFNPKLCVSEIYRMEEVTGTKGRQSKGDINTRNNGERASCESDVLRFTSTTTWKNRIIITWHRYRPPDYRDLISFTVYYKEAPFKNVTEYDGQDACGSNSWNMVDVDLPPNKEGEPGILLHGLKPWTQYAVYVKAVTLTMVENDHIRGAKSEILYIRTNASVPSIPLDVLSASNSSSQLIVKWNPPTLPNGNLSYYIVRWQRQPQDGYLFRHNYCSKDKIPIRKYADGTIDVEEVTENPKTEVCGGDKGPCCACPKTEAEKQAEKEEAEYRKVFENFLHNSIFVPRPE
Target sequence in this assay (P24062 742-1370, chain 2 of 2): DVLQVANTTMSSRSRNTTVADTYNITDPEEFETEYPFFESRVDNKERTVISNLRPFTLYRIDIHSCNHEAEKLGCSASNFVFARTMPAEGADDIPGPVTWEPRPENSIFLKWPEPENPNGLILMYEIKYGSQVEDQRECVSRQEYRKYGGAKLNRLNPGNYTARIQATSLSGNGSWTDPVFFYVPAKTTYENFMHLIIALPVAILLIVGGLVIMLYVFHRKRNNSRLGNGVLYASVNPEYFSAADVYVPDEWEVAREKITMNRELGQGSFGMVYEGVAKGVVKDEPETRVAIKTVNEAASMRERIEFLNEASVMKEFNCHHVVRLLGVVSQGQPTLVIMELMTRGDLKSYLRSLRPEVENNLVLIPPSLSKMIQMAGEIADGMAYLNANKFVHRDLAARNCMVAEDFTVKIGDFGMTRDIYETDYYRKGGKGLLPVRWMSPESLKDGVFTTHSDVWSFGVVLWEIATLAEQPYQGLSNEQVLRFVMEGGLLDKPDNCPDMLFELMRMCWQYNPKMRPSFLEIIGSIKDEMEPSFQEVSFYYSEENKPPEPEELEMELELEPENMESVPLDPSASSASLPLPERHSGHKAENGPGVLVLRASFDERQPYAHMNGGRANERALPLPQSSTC

[8] = target: T4, His-tagged soluble recombinant human IGF-IR (srhIGF-1R-his; R&D systems) (human, UniProt P08069 31-935); assay: AlphaScreen competition with biotinylated hIGF-1 on srhIGF-1R-his
T4 construct: extracellular domain; Bought protein; also called extra-cellular domain of IGF-1R; not shown: His tag
T4 sequence (P08069 31-935): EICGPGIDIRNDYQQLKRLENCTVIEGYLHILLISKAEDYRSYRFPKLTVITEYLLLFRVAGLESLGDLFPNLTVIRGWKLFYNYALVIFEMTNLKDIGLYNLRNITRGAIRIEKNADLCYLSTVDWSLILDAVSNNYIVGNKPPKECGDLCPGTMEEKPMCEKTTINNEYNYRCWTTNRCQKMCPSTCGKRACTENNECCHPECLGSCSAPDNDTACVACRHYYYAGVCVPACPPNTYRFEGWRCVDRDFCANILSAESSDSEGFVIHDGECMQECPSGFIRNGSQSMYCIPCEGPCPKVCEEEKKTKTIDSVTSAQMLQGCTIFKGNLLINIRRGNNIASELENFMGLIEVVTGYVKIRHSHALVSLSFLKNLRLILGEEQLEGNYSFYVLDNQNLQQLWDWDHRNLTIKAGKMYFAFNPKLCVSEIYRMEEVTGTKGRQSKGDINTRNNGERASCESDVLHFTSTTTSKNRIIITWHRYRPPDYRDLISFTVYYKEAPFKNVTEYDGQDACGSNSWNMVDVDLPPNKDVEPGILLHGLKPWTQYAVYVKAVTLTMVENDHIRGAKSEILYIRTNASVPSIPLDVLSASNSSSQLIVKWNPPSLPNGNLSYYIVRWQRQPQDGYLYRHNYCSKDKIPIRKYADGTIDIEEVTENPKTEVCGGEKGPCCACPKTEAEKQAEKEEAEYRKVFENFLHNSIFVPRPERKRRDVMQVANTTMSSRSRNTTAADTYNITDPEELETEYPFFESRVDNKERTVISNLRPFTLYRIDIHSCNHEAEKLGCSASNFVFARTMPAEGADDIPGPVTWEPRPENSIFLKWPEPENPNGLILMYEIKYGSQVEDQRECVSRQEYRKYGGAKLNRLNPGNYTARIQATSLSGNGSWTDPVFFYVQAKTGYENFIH
Procedure: Binding Assays. […] Detection of the receptor ligand interaction was measured in an amplified luminescent proximity homogeneous assay (ALPHAScreen; BioSignal-Packard, Montreal). The assay was performed in 384-well Nunc™ white polystyrene microplates (Nalge Nunc International, Naperville, Ill.) with a final volume of 40 μL. […] Each concentration of competitor was assayed in duplicate. […] The second step of the assay was to add acceptor beads and the incubation continued for 0.5 hr. The final step was to add donor beads and the incubation continued for an additional 1 hr. […] Primary data were background corrected, normalized to buffer controls and then expressed as % Specific Binding. The data were fit to a four-parameter non-linear regression analysis (y=min+(max-min)/(1+10̂((log IC₅₀-x)*Hillslope))), which was used to determine IC₅₀ values. The Z′-factor for this assay is greater than 0.7 (Z′=1-(3σ++3σ−)/|μ+−μ−|) and the signal-to-background (SB) ratio was between 40 and 70.

IGF-1R on SW480 cells [9] = target: T1, IGF-1R on SW480 cells; assay: cell-based or functional assay; remark: listed apart in the source
[10] = target: T2, IGF-1R on MCF-7 cells (MCF-7S8, MCF7); assay: cell-based or functional assay; remark: listed apart in the source
IGF-1R on L6 cells [11] = assay: cell-based or functional assay; remark: listed apart in the source

T1 sequence (P08069 31-1367 limits assumed): as the sequence (P08069 31-1367) above

EGRVDDAFYEWFERQLGE [F213]
IC50 in SW480 (M) in presence of IGF-1 (IGF-1R on SW480 cells [1]): 2e-06 M
IC50 in MCF-7S8, in presence of IGF-1 [2]: 2000 nM

FVQDDCRGRPCGDADSFYEWFDQQAGYGSSSRRAPQT [F364]
Kd [3]: 50 nM

RQWDCRGRPCGDAESFYEWFDQQRS [F264]
IC50, IGF-1 dependent growth in SW480 cells [4]: > 1000 nM

EISFRCQLFVLAGMHPCPVDVGGEGFE [F170]
IC50 in MCF-7S8, in presence of IGF-1 [2]: 2000 nM

DFYGCLLDLSLGVPSLGWRRRCIT (also called Peptide 428) [F428]
IC50, IGF-1 dependent growth of SW480 [4]: 500 nM and 1000 nM

EFGRGYGGDGGGYWSGYEWLAE [F207]
IC50 in SW480 (M) in presence of IGF-1 (IGF-1R on SW480 cells [1]): 2e-06 M
IC50 in MCF-7S8, in presence of IGF-1 [2]: 2000 nM
IC50 in kinase assay (M), IGF-1R kinase activation by 10 nM IGF-1 [5]: 2e-07 M

SFYSCLESLVTGPAEKSRGQWEGCRK [F292]
IC50 in SW480 (M) in presence of IGF-1 (IGF-1R on SW480 cells [1]): 1e-07 M
IC50 in SW480 (M), peptide alone (IGF-1R on SW480 cells [1]): 1e-06 M
IC50 in MCF-7S8, in presence of IGF-1 [2]: 1000 nM

QFYGCLLDLSLGVPSFGWRRRCITA [F138, listing 1 of 2 here]
IC50, IGF-1 dependent growth in MCF-7 [4]: 500 nM
IC50, IGF-1 dependent growth in SW480 [4]: 150 nM
Kd [3]: 6 to 10 nM

SFYSCLESLVAGPAEKSRGQWEGCRK [F259, listing 1 of 2 here]
IC50, IGF-1R kinase activation by IGF-1 [6]: 200 nM and 300 nM

SFYSCLESLVQGPAEKSRGQWEGCRK [F293, listing 1 of 2 here]
IC50, growth of L6 cells stimulated by IGF-1 at 3 nM (IGF-1R on L6 cells [7]): > 10000 nM
IC50, phosphorylation of IGF-1R and MAPK42/44 in response to IGF-1 treatment (IGF-1R on L6 cells [7]): 500 nM
IC50, IGF-1 dependent growth in MCF-7 cells [4]: 10000 nM
Kd [3]: 90 nM

EFSGFCMGLERLSQVSLGYCGAGQGGE [F169]
IC50 in SW480 (M) in presence of IGF-1 (IGF-1R on SW480 cells [1]): 2e-06 M
IC50 in MCF-7S8, in presence of IGF-1 [2]: 2000 nM

TFYSCLASLLTGTPQPNRGPWERCR [RP6]
IC50 [8]: 2700 nM

EVDRDCQARPCGDAANFYDWFGQQGTE [F269]
IC50 in SW480 (M) in presence of IGF-1 (IGF-1R on SW480 cells [1]): 5e-07 M
IC50 in SW480 (M), peptide alone (IGF-1R on SW480 cells [1]): > 1e-05 M
IC50 in kinase assay (M), IGF-1R kinase activation by 10 nM IGF-1 [5]: 8e-07 M

EDWLRCLGVILSGGLTELANTGCVQGE [F167]
IC50 in kinase assay (M), IGF-1R kinase activation by 10 nM IGF-1 [5]: 1e-06 M

QFYGCLLDLSLGVPSFGWKKKCITA [F392]
IC50, IGF-1 dependent growth of SW480 [4]: 800 nM

[pGlu]FYGCLLDLSLGVPSFGWRRRCITA (cysteine pairing not given here) [F138P]
IC50, IGF-1 dependent growth in SW480 [4]: 500 nM

ESYGDCRDRPCGDAPNFYDWFVQQASE [F270]
IC50, IGF-1 dependent growth in SW480 [4]: 2000 nM

ESFYSCLESLVNGPAEKSRGQWDGCRE [F215]
Kd [3]: 80 to 300 nM

ESFYSCLASLVAGTPWPKGGSWERCREE [F230]
Kd [3]: 20 to 50 nM

SFYSCLESLVAGPAEKSRGQWEGCRK [F259, listing 2 of 2 here]
IC50 in SW480 (M) in presence of IGF-1 (IGF-1R on SW480 cells [1]): 2e-06 M
IC50 in MCF-7S8, in presence of IGF-1 [2]: 5000 nM and 2000 nM
IC50, IGF-1 (10 nM)-induced proliferation of SW480 cells, exp. 13262-014 (IGF-1R on SW480 cells [9]): > 10000 nM

SFYDCLLDLSIGGPSSDWRRRCITA [F441]
MCF7 IC50 [10]: 240 nM and 180 nM

QFYGCLLDLSLGVPSFGWRRRCITA [F138, listing 2 of 2 here]
IC50 in MCF-7S8, in presence of IGF-1 [2]: 500 nM
IC50, down regulation of 3 nM IGF-1 stimulation to basal level, IRS-1, L6 cells (IGF-1R on L6 cells [11]): 300 nM
IC50, down regulation of 3 nM IGF-1 stimulation to basal level, MAPK42, L6 cells (IGF-1R on L6 cells [11]): 300 nM
IC50, down regulation of 3 nM IGF-1 stimulation to basal level, MAPK44, L6 cells (IGF-1R on L6 cells [11]): 300 nM and 100 nM
IC50, down regulation of 3 nM IGF-1 stimulation to basal level, PKB/Akt, L6 cells (IGF-1R on L6 cells [11]): 300 nM and 100 nM

DFYGCLLDLSLGVPSLGWRRRCITA [F429]
IC50, IGF-1 (10 nM)-induced proliferation of SW480 cells, exp. 13717-019 (IGF-1R on SW480 cells [9]): 500 nM
IC50, IGF-1 (10 nM)-induced proliferation of SW480 cells, exp. 13717-027 (IGF-1R on SW480 cells [9]): 1000 nM
IC50, down regulation of 3 nM IGF-1 stimulation to basal level, IGF-IR, L6 cells (IGF-1R on L6 cells [11]): 50 nM
IC50, down regulation of 3 nM IGF-1 stimulation to basal level, IRS-1, L6 cells (IGF-1R on L6 cells [11]): 40 nM
IC50, down regulation of 3 nM IGF-1 stimulation to basal level, MAPK42, L6 cells (IGF-1R on L6 cells [11]): 300 nM
IC50, down regulation of 3 nM IGF-1 stimulation to basal level, MAPK44, L6 cells (IGF-1R on L6 cells [11]): 100 nM
IC50, down regulation of 3 nM IGF-1 stimulation to basal level, PKB/Akt, L6 cells (IGF-1R on L6 cells [11]): 100 nM

SFYSCLESLVNGPAEKSRGQWDGCRK [F250]
IC50 in SW480 (M) in presence of IGF-1 (IGF-1R on SW480 cells [1]): 2e-06 M and 1e-06 M
IC50 in MCF-7S8, in presence of IGF-1 [2]: 2000 nM

SFYSCLESLVQGPAEKSRGQWEGCRK [F293, listing 2 of 2 here]
IC50 in SW480 (M), peptide alone (IGF-1R on SW480 cells [1]): 1e-07 M
IC50 in MCF-7S8, in presence of IGF-1 [2]: 10000 nM
IC50 in MCF-7S8, peptide alone [2]: > 10000 nM
IC50 in kinase assay (M), IGF-1R kinase activation by 10 nM IGF-1 [5]: 1e-07 M
IC50, down regulation of 3 nM IGF-1 stimulation to basal level, IGF-IR, L6 cells (IGF-1R on L6 cells [11]): 500 nM
IC50, down regulation of 3 nM IGF-1 stimulation to basal level, IRS-1, L6 cells (IGF-1R on L6 cells [11]): > 1000 nM
IC50, down regulation of 3 nM IGF-1 stimulation to basal level, MAPK42, L6 cells (IGF-1R on L6 cells [11]): 1000 nM
IC50, down regulation of 3 nM IGF-1 stimulation to basal level, MAPK44, L6 cells (IGF-1R on L6 cells [11]): 500 nM
IC50, down regulation of 3 nM IGF-1 stimulation to basal level, PKB/Akt, L6 cells (IGF-1R on L6 cells [11]): > 1000 nM
IC50 [8]: 9 nM
